Measured values reported in article PMC4753445.

Molecular target: AKT1 substrate 1 (AKT1S1), Flag-tagged (UniProt Q96B36)
Experiment: co-IP; 14-3-3 co-expressed with AKT1S1 (or 2SE) in HEK293T cells, with or without overexpressed PKM2 or PKM2 K270M; 14-3-3 co-immunoprecipitated with AKT1S1 detected by blot

14-3-3, sequence (P63104 whole entry): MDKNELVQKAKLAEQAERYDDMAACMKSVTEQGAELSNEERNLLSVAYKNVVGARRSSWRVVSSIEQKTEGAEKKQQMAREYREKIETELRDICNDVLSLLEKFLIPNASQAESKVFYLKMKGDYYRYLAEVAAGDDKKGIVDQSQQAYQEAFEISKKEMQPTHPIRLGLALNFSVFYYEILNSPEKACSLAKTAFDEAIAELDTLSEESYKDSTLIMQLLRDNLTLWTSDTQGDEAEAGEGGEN

## 14-3-3 (from UniProt P63104 1-245) (natural protein)
  fold increase of the co-precipitate with PKM2 overexpressed against without PKM2: > 3 fold
